Measurements published in article PMC12326988, “Synthetic host defense peptide inhibits SARS-CoV-2 replication in vitro” (Antimicrobial Agents and Chemotherapy, 2025).

Biological target: binding between SARS-CoV-2 Wuhan RBD-Fc and hACE2-AP (UniProt P0DTC2+Q9BYF1)
Set-up: species or system SARS-CoV-2; human

binding between SARS-CoV-2 Wuhan RBD-Fc and hACE2-AP, sequence (Q9BYF1 18-740, one chain of several): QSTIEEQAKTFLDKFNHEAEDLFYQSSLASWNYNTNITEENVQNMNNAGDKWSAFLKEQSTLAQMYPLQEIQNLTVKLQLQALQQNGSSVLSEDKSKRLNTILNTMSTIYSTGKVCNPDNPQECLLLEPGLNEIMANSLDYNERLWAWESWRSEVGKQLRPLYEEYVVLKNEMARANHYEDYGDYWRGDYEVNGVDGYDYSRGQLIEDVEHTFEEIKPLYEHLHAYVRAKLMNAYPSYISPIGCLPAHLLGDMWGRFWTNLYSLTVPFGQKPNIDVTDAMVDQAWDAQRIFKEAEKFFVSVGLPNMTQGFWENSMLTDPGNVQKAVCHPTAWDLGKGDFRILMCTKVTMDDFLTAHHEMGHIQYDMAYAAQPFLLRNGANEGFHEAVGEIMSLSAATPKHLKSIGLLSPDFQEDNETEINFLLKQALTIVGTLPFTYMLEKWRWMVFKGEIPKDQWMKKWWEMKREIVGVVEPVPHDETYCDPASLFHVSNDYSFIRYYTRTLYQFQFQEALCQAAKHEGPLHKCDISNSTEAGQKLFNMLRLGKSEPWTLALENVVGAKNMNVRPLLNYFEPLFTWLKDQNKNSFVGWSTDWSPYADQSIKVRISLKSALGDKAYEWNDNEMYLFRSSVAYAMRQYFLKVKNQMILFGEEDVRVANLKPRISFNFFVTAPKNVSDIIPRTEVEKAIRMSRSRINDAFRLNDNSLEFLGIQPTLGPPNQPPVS

shACE2
IC50, inhibition of hACE2-AP to RBD-Fc interaction: 1.42 µg/mL
